Reference: patent publication US12630600B2 (MEDIMMUNE LIMITED, priority 2022, dated 2026)
Starred links: 1 amine or outer side, 2 acyl side, 3 side chain; linkers in the order of their positions; H or OH if unused. Non-standard residues stand in square brackets, D forms with d. Groups on a side chain read outwards from the residue. No end group written: not given here. *: point of attachment. C20 diacid = O=C(O)CCCCCCCCCCCCCCCCCCC(=O)*; C18 diacid = O=C(O)CCCCCCCCCCCCCCCCC(=O)*; γGlu = O=C(O)[C@H](CCC(=O)[*:2])N[*:1]; αMeF = C[C@](N)(Cc1ccccc1)C(=O)O; AEEA = NCCOCCOCC(=O)O; Aib = CC(C)(N)C(=O)O

B1: Peptide 485 (peptide)
peptide: H[Aib]QGTFTSDVSK[αMeF]LDTK([AEEA-AEEA-γGlu-C20 diacid])RAQDFVQWLL[Aib]E-NH2
modifications: N-terminus assumed
SMILES: CC(C)C[C@H](NC(=O)[C@H](Cc1c[nH]c2ccccc12)NC(=O)[C@H](CCC(N)=O)NC(=O)[C@@H](NC(=O)[C@H](Cc1ccccc1)NC(=O)[C@H](CC(=O)O)NC(=O)[C@H](CCC(N)=O)NC(=O)[C@H](C)NC(=O)[C@H](CCCNC(=N)N)NC(=O)[C@H](CCCCNC(=O)COCCOCCNC(=O)COCCOCCNC(=O)CC[C@H](NC(=O)CCCCCCCCCCCCCCCCCCC(=O)O)C(=O)O)NC(=O)[C@@H](NC(=O)[C@H](CC(=O)O)NC(=O)[C@H](CC(C)C)NC(=O)[C@](C)(Cc1ccccc1)NC(=O)[C@H](CCCCN)NC(=O)[C@H](CO)NC(=O)[C@@H](NC(=O)[C@H](CC(=O)O)NC(=O)[C@H](CO)NC(=O)[C@@H](NC(=O)[C@H](Cc1ccccc1)NC(=O)[C@@H](NC(=O)CNC(=O)[C@H](CCC(N)=O)NC(=O)C(C)(C)NC(=O)[C@@H](N)Cc1c[nH]cn1)[C@@H](C)O)[C@@H](C)O)C(C)C)[C@@H](C)O)C(C)C)C(=O)N[C@@H](CC(C)C)C(=O)NC(C)(C)C(=O)N[C@@H](CCC(=O)O)C(N)=O
B2: Peptide 491 (peptide)
peptide: H[Aib]QGTFTSDVSK[αMeF]LDTK([AEEA-AEEA-γGlu-C18 diacid])RARDFVRWLL[Aib]TE-OH
modifications: N-terminus assumed
SMILES: CC(C)C[C@H](NC(=O)[C@H](Cc1c[nH]c2ccccc12)NC(=O)[C@H](CCCNC(=N)N)NC(=O)[C@@H](NC(=O)[C@H](Cc1ccccc1)NC(=O)[C@H](CC(=O)O)NC(=O)[C@H](CCCNC(=N)N)NC(=O)[C@H](C)NC(=O)[C@H](CCCNC(=N)N)NC(=O)[C@H](CCCCNC(=O)COCCOCCNC(=O)COCCOCCNC(=O)CC[C@H](NC(=O)CCCCCCCCCCCCCCCCC(=O)O)C(=O)O)NC(=O)[C@@H](NC(=O)[C@H](CC(=O)O)NC(=O)[C@H](CC(C)C)NC(=O)[C@](C)(Cc1ccccc1)NC(=O)[C@H](CCCCN)NC(=O)[C@H](CO)NC(=O)[C@@H](NC(=O)[C@H](CC(=O)O)NC(=O)[C@H](CO)NC(=O)[C@@H](NC(=O)[C@H](Cc1ccccc1)NC(=O)[C@@H](NC(=O)CNC(=O)[C@H](CCC(N)=O)NC(=O)C(C)(C)NC(=O)[C@@H](N)Cc1c[nH]cn1)[C@@H](C)O)[C@@H](C)O)C(C)C)[C@@H](C)O)C(C)C)C(=O)N[C@@H](CC(C)C)C(=O)NC(C)(C)C(=O)N[C@H](C(=O)N[C@@H](CCC(=O)O)C(=O)O)[C@@H](C)O
B3: Peptide 492 (peptide)
peptide: H[Aib]QGTFTSDVSK[αMeF]LDTK([AEEA-AEEA-γGlu-C20 diacid])RARDFVRWLL[Aib]TE-OH
modifications: N-terminus assumed
SMILES: CC(C)C[C@H](NC(=O)[C@H](Cc1c[nH]c2ccccc12)NC(=O)[C@H](CCCNC(=N)N)NC(=O)[C@@H](NC(=O)[C@H](Cc1ccccc1)NC(=O)[C@H](CC(=O)O)NC(=O)[C@H](CCCNC(=N)N)NC(=O)[C@H](C)NC(=O)[C@H](CCCNC(=N)N)NC(=O)[C@H](CCCCNC(=O)COCCOCCNC(=O)COCCOCCNC(=O)CC[C@H](NC(=O)CCCCCCCCCCCCCCCCCCC(=O)O)C(=O)O)NC(=O)[C@@H](NC(=O)[C@H](CC(=O)O)NC(=O)[C@H](CC(C)C)NC(=O)[C@](C)(Cc1ccccc1)NC(=O)[C@H](CCCCN)NC(=O)[C@H](CO)NC(=O)[C@@H](NC(=O)[C@H](CC(=O)O)NC(=O)[C@H](CO)NC(=O)[C@@H](NC(=O)[C@H](Cc1ccccc1)NC(=O)[C@@H](NC(=O)CNC(=O)[C@H](CCC(N)=O)NC(=O)C(C)(C)NC(=O)[C@@H](N)Cc1c[nH]cn1)[C@@H](C)O)[C@@H](C)O)C(C)C)[C@@H](C)O)C(C)C)C(=O)N[C@@H](CC(C)C)C(=O)NC(C)(C)C(=O)N[C@H](C(=O)N[C@@H](CCC(=O)O)C(=O)O)[C@@H](C)O
B4: Peptide 490 (peptide)
peptide: H[Aib]QGTFTSDVSK[αMeF]LDTK([AEEA-AEEA-γGlu-C20 diacid])RARDFVQWLL[Aib]TE-NH2
modifications: N-terminus assumed
SMILES: CC(C)C[C@H](NC(=O)[C@H](Cc1c[nH]c2ccccc12)NC(=O)[C@H](CCC(N)=O)NC(=O)[C@@H](NC(=O)[C@H](Cc1ccccc1)NC(=O)[C@H](CC(=O)O)NC(=O)[C@H](CCCNC(=N)N)NC(=O)[C@H](C)NC(=O)[C@H](CCCNC(=N)N)NC(=O)[C@H](CCCCNC(=O)COCCOCCNC(=O)COCCOCCNC(=O)CC[C@H](NC(=O)CCCCCCCCCCCCCCCCCCC(=O)O)C(=O)O)NC(=O)[C@@H](NC(=O)[C@H](CC(=O)O)NC(=O)[C@H](CC(C)C)NC(=O)[C@](C)(Cc1ccccc1)NC(=O)[C@H](CCCCN)NC(=O)[C@H](CO)NC(=O)[C@@H](NC(=O)[C@H](CC(=O)O)NC(=O)[C@H](CO)NC(=O)[C@@H](NC(=O)[C@H](Cc1ccccc1)NC(=O)[C@@H](NC(=O)CNC(=O)[C@H](CCC(N)=O)NC(=O)C(C)(C)NC(=O)[C@@H](N)Cc1c[nH]cn1)[C@@H](C)O)[C@@H](C)O)C(C)C)[C@@H](C)O)C(C)C)C(=O)N[C@@H](CC(C)C)C(=O)NC(C)(C)C(=O)N[C@H](C(=O)N[C@@H](CCC(=O)O)C(N)=O)[C@@H](C)O
B5: Peptide 488 (peptide)
peptide: H[Aib]QGTFTSDVSK[αMeF]LDTK([AEEA-AEEA-γGlu-C20 diacid])RARDFVQWLL[Aib]TE-OH
modifications: N-terminus assumed
SMILES: CC(C)C[C@H](NC(=O)[C@H](Cc1c[nH]c2ccccc12)NC(=O)[C@H](CCC(N)=O)NC(=O)[C@@H](NC(=O)[C@H](Cc1ccccc1)NC(=O)[C@H](CC(=O)O)NC(=O)[C@H](CCCNC(=N)N)NC(=O)[C@H](C)NC(=O)[C@H](CCCNC(=N)N)NC(=O)[C@H](CCCCNC(=O)COCCOCCNC(=O)COCCOCCNC(=O)CC[C@H](NC(=O)CCCCCCCCCCCCCCCCCCC(=O)O)C(=O)O)NC(=O)[C@@H](NC(=O)[C@H](CC(=O)O)NC(=O)[C@H](CC(C)C)NC(=O)[C@](C)(Cc1ccccc1)NC(=O)[C@H](CCCCN)NC(=O)[C@H](CO)NC(=O)[C@@H](NC(=O)[C@H](CC(=O)O)NC(=O)[C@H](CO)NC(=O)[C@@H](NC(=O)[C@H](Cc1ccccc1)NC(=O)[C@@H](NC(=O)CNC(=O)[C@H](CCC(N)=O)NC(=O)C(C)(C)NC(=O)[C@@H](N)Cc1c[nH]cn1)[C@@H](C)O)[C@@H](C)O)C(C)C)[C@@H](C)O)C(C)C)C(=O)N[C@@H](CC(C)C)C(=O)NC(C)(C)C(=O)N[C@H](C(=O)N[C@@H](CCC(=O)O)C(=O)O)[C@@H](C)O
B6: Peptide 487 (peptide)
peptide: H[Aib]QGTFTSDVSK[αMeF]LDTK([AEEA-AEEA-γGlu-C18 diacid])RARDFVQWLL[Aib]TE-OH
modifications: N-terminus assumed
SMILES: CC(C)C[C@H](NC(=O)[C@H](Cc1c[nH]c2ccccc12)NC(=O)[C@H](CCC(N)=O)NC(=O)[C@@H](NC(=O)[C@H](Cc1ccccc1)NC(=O)[C@H](CC(=O)O)NC(=O)[C@H](CCCNC(=N)N)NC(=O)[C@H](C)NC(=O)[C@H](CCCNC(=N)N)NC(=O)[C@H](CCCCNC(=O)COCCOCCNC(=O)COCCOCCNC(=O)CC[C@H](NC(=O)CCCCCCCCCCCCCCCCC(=O)O)C(=O)O)NC(=O)[C@@H](NC(=O)[C@H](CC(=O)O)NC(=O)[C@H](CC(C)C)NC(=O)[C@](C)(Cc1ccccc1)NC(=O)[C@H](CCCCN)NC(=O)[C@H](CO)NC(=O)[C@@H](NC(=O)[C@H](CC(=O)O)NC(=O)[C@H](CO)NC(=O)[C@@H](NC(=O)[C@H](Cc1ccccc1)NC(=O)[C@@H](NC(=O)CNC(=O)[C@H](CCC(N)=O)NC(=O)C(C)(C)NC(=O)[C@@H](N)Cc1c[nH]cn1)[C@@H](C)O)[C@@H](C)O)C(C)C)[C@@H](C)O)C(C)C)C(=O)N[C@@H](CC(C)C)C(=O)NC(C)(C)C(=O)N[C@H](C(=O)N[C@@H](CCC(=O)O)C(=O)O)[C@@H](C)O
B7: Peptide 486 (peptide)
peptide: H[Aib]QGTFTSDVSK[αMeF]LDLK([AEEA-AEEA-γGlu-C20 diacid])RAQDFVRWLL[Aib]E-OH
modifications: N-terminus assumed
SMILES: CC(C)C[C@H](NC(=O)[C@H](CC(=O)O)NC(=O)[C@H](CC(C)C)NC(=O)[C@](C)(Cc1ccccc1)NC(=O)[C@H](CCCCN)NC(=O)[C@H](CO)NC(=O)[C@@H](NC(=O)[C@H](CC(=O)O)NC(=O)[C@H](CO)NC(=O)[C@@H](NC(=O)[C@H](Cc1ccccc1)NC(=O)[C@@H](NC(=O)CNC(=O)[C@H](CCC(N)=O)NC(=O)C(C)(C)NC(=O)[C@@H](N)Cc1c[nH]cn1)[C@@H](C)O)[C@@H](C)O)C(C)C)C(=O)N[C@@H](CCCCNC(=O)COCCOCCNC(=O)COCCOCCNC(=O)CC[C@H](NC(=O)CCCCCCCCCCCCCCCCCCC(=O)O)C(=O)O)C(=O)N[C@@H](CCCNC(=N)N)C(=O)N[C@@H](C)C(=O)N[C@@H](CCC(N)=O)C(=O)N[C@@H](CC(=O)O)C(=O)N[C@@H](Cc1ccccc1)C(=O)N[C@H](C(=O)N[C@@H](CCCNC(=N)N)C(=O)N[C@@H](Cc1c[nH]c2ccccc12)C(=O)N[C@@H](CC(C)C)C(=O)N[C@@H](CC(C)C)C(=O)NC(C)(C)C(=O)N[C@@H](CCC(=O)O)C(=O)O)C(C)C

What follows are binders tested against human GLP-1 receptor (human, UniProt P43220) (assay: cell-based or functional assay).

Going from B1 to B2, the “cAMP production EC50” value falls from 0.219 nM to 0.0736 nM (3-fold).

Going from B3 to B4, the “cAMP production EC50” value falls from 0.212 nM to 0.069 nM (3.1-fold).

Compared with B5, B6 is 3.1-fold lower in “cAMP production EC50” value: 0.202 nM for the first, 0.0655 nM for the second.

With B7 the “cAMP production EC50” value was 0.42 nM.

Each binder was assayed against human glucagon receptor (human, UniProt P47871) (assay: cell-based or functional assay).

Going from B1 to B2, the “cAMP production EC50” value rises from 0.0904 nM to 0.232 nM (2.6-fold).

B3 and B4 are within 1.5-fold of each other in “cAMP production EC50” value: 0.374 nM for the first, 0.396 nM for the second.

Going from B5 to B6, the “cAMP production EC50” value falls from 0.301 nM to 0.164 nM (1.8-fold).

In the case of B7, the “cAMP production EC50” value is reported as 0.166 nM.
